Reference: patent US7084111 (UNIVERSITY OF FLORIDA RESEARCH FOUNDATION, dated 2006)
Bridges are numbered along the chain shown (N, C = ends). Where no end group is shown, it is not given here. [ ]: non-standard residue; d: D form. Nle = CCCC[C@H](N)C(=O)O; Dap = NC[C@H](N)C(=O)O

Columns and labels:
Assay in all cases: cell-based or functional assay
[1] = target: mouse melanocortin-1 receptor (mouse, UniProt Q01727 1-315)
[2] = target: mouse melanocortin-4 receptor (mouse, UniProt P56450 1-332)
[3] = target: mouse melanocortin-5 receptor (mouse, UniProt P41149 1-325)
[4] = target: mouse melanocortin-3 receptor (mouse, UniProt P33033 1-323)
mouse melanocortin-3 receptor, sequence (P33033 whole entry): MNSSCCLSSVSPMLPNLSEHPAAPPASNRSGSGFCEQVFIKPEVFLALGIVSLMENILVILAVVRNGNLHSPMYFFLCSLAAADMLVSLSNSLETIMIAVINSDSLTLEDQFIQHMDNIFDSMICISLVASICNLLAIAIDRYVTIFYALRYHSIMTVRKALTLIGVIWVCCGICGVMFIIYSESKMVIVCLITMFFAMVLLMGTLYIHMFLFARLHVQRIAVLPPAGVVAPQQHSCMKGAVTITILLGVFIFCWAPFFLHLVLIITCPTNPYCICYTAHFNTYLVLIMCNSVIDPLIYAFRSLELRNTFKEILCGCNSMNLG

mouse melanocortin-1 receptor, sequence (Q01727 whole entry): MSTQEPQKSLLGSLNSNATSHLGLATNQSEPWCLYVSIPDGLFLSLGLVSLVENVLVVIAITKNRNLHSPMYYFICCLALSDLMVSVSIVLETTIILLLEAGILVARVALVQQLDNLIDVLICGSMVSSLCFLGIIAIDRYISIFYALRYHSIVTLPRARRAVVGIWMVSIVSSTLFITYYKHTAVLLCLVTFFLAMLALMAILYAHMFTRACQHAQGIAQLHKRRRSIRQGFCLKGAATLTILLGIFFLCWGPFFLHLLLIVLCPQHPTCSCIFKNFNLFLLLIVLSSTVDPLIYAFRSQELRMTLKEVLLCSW
mouse melanocortin-4 receptor, sequence (P56450 whole entry): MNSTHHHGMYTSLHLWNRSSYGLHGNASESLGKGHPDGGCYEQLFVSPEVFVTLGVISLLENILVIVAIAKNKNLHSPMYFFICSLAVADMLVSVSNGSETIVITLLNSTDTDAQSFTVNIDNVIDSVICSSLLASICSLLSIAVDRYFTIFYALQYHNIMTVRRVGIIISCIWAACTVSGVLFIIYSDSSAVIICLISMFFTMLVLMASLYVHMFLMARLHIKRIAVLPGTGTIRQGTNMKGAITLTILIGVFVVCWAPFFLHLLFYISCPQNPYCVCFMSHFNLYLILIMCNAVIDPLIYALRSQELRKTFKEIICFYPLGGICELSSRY
mouse melanocortin-5 receptor, sequence (P41149 whole entry): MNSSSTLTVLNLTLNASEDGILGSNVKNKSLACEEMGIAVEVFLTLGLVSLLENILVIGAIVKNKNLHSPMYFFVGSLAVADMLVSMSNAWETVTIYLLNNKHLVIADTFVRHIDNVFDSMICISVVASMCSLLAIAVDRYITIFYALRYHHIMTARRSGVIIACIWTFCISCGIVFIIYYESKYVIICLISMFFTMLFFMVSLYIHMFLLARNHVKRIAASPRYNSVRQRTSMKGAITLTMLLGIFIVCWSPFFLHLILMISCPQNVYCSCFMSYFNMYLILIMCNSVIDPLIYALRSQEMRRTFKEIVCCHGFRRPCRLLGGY

| Binder | EC50 (agonist) [1] [nM] | EC50 (agonist) [2] [nM] | EC50 (agonist) [3] [nM] | EC50 (agonist) [4] [nM] | pA2 (antagonist) [2] | pA2 (antagonist) [4] | pA2 (antagonist; Partial agonist) [2] | pA2 (antagonist; Partial agonist) [4] | EC50 (agonist; Partial agonist) [4] [nM] |
| --- | --- | --- | --- | --- | --- | --- | --- | --- | --- |
| YDHXRXNAFXY (Asp-Dpr side chain lactam bridge; Dpr; DPhe; Bip; C-terminal amide (amide resin)) [SEQ ID NO:41 (Tyr-c[Asp-His-DPhe-Arg-Bip-Asn-Ala-Phe-Dpr]-Tyr)] | 11.6 | 42.6 | 3.43 | 450 | – | – | – | – | – |
| YDRFFNAF[Dap]Y-NH2 (lactam 2-9) [SEQ ID NO:3 (Tyr-c[Asp-Arg-Phe-Phe-Asn-Ala-Phe-Dpr]-Tyr)] | – | – | > 100000 | – | 5.9 | 5.7 | – | – | – |
| YCRF[dF]NAFCY-NH2 (disulfide 2-9; N-terminus assumed; SMILES C[C@@H]1NC(=O)[C@H](CC(N)=O)NC(=O)[C@@H](Cc2ccccc2)NC(=O)[C@H](Cc2ccccc2)NC(=O)[C@H](CCCNC(=N)N)NC(=O)[C@@H](NC(=O)[C@@H](N)Cc2ccc(O)cc2)CSSC[C@@H](C(=O)N[C@@H](Cc2ccc(O)cc2)C(N)=O)NC(=O)[C@H](Cc2ccccc2)NC1=O) [SEQ ID NO:1 (Tyr-c[Cys-Arg-Phe-DPhe-Asn-Ala-Phe-Cys]-Tyr)] | 61.3 | – | 239 | > 100000 | – | – | 6.1 | – | – |
| YDWR[dF]NAF[Dap]Y-NH2 (lactam 2-9; N-terminus assumed; SMILES C[C@@H]1NC(=O)[C@H](CC(N)=O)NC(=O)[C@@H](Cc2ccccc2)NC(=O)[C@H](CCCNC(=N)N)NC(=O)[C@H](Cc2c[nH]c3ccccc23)NC(=O)[C@@H](NC(=O)[C@@H](N)Cc2ccc(O)cc2)CC(=O)NC[C@@H](C(=O)N[C@@H](Cc2ccc(O)cc2)C(N)=O)NC(=O)[C@H](Cc2ccccc2)NC1=O) [SEQ ID NO:5 (Tyr-c[Asp-Trp-Arg-DPhe-Asn-Ala-Phe-Dpr]-Tyr)] | 6120 | 10900 | 2220 | – | – | – | – | – | – |
| Ac-[Nle]DHRF[dF]K-NH2 (lactam 2-7; SMILES CCCC[C@H](NC(C)=O)C(=O)N[C@H]1CC(=O)NCCCC[C@@H](C(N)=O)NC(=O)[C@@H](Cc2ccccc2)NC(=O)[C@H](Cc2ccccc2)NC(=O)[C@H](CCCNC(=N)N)NC(=O)[C@H](Cc2c[nH]cn2)NC1=O) [SEQ ID NO:23 (Ac-Nle-c[Asp-His-Arg-Phe-DPhe-Lys])] | 2630 | > 100000 | – | – | – | – | – | – | – |
| YDHXRWNAFXY (Asp-Dpr side chain lactam bridge; Dpr; DNal(2′); C-terminal amide (amide resin)) [SEQ ID NO:33 (Tyr-c[Asp-His-DNal(2′)-Arg-Trp-Asn-Ala-Phe-Dpr]-Tyr)] | 5.56 | – | 22.3 | – | – | 8.3 | 9.3 | – | – |
| YDHXRPNAFXY (Asp-Dpr side chain lactam bridge; Dpr; DPhe; C-terminal amide (amide resin)) [SEQ ID NO:38 (Tyr-c[Asp-His-DPhe-Arg-Pro-Asn-Ala-Phe-Dpr]-Tyr)] | 1000 | 7200 | 700 | 39200 | – | – | – | – | – |
| YDAXRWNAFXY (Asp-Dpr side chain lactam bridge; Dpr; DPhe; C-terminal amide (amide resin)) [SEQ ID NO:24 (Tyr-c[Asp-Ala-DPhe-Arg-Trp-Asn-Ala-Phe-Dpr]-Tyr)] | 7.2 | 0.36 | 0.46 | 29 | – | – | – | – | – |
| YDPXRWNAFXY (Asp-Dpr side chain lactam bridge; Dpr; DPhe; C-terminal amide (amide resin)) [SEQ ID NO:28 (Tyr-c[Asp-Pro-DPhe-Arg-Trp-Asn-Ala-Phe-Dpr]-Tyr)] | 22.1 | 0.63 | 7.16 | – | – | – | – | 7.2 | – |
| Ac-[Nle]DH[dR]FFK-NH2 (lactam 2-7) [SEQ ID NO:21 (Ac-Nle-c[Asp-His-DArg-Phe-Phe-Lys])] | > 100000 | > 100000 | > 100000 | > 100000 | – | – | – | – | – |
| YDFRWNAF[Dap]Y-NH2 (lactam 2-9) [SEQ ID NO:6 (Tyr-c[Asp-Phe-Arg-Trp-Asn-Ala-Phe-Dpr]-Tyr)] | 19700 | 13400 | 3900 | – | – | – | – | – | – |
| Ac-[Nle]DHR[dF]FK-NH2 (lactam 2-7) [SEQ ID NO:22 (Ac-Nle-c[Asp-His-Arg-DPhe-Phe-Lys])] | 440 | 5000 | 3600 | 14400 | – | – | – | – | – |
| YDFXRWNAFXY (Asp-Dpr side chain lactam bridge; Dpr; DPhe; C-terminal amide (amide resin)) [SEQ ID NO:29 (Tyr-c[Asp-Phe-DPhe-Arg-Trp-Asn-Ala-Phe-Dpr]-Tyr)] | 6.04 | 0.64 | 3.15 | – | – | – | – | 7.2 | – |
| YDHXAWNAFXY (Asp-Dpr side chain lactam bridge; Dpr; DPhe; C-terminal amide (amide resin)) [SEQ ID NO:26 (Tyr-c[Asp-His-DPhe-Ala-Trp-Asn-Ala-Phe-Dpr]-Tyr)] | 66.5 | 32.5 | 2.06 | 23800 | – | – | – | – | – |
| YDHXRANAFXY (Asp-Dpr side chain lactam bridge; Dpr; DPhe; C-terminal amide (amide resin)) [SEQ ID NO:27 (Tyr-c[Asp-His-DPhe-Arg-Ala-Asn-Ala-Phe-Dpr]-Tyr)] | 350 | 710 | 50.1 | 13500 | – | – | – | – | – |
| YDHPRWNAF[Dap]Y-NH2 (lactam 2-10; N-terminus assumed; SMILES C[C@@H]1NC(=O)[C@H](CC(N)=O)NC(=O)[C@H](Cc2c[nH]c3ccccc23)NC(=O)[C@H](CCCNC(=N)N)NC(=O)[C@@H]2CCCN2C(=O)[C@H](Cc2c[nH]cn2)NC(=O)[C@@H](NC(=O)[C@@H](N)Cc2ccc(O)cc2)CC(=O)NC[C@@H](C(=O)N[C@@H](Cc2ccc(O)cc2)C(N)=O)NC(=O)[C@H](Cc2ccccc2)NC1=O) [SEQ ID NO:31 (Tyr-c[Asp-His-Pro-Arg-Trp-Asn-Ala-Phe-Dpr]-Tyr)] | 10300 | 16700 | 7900 | 13200 | – | – | – | – | – |
| Ac-SYS[Nle]EH[dR]FFGKPV-NH2 [SEQ ID NO:16 (Ac-Ser-Tyr-Ser-Nle-Glu-His-DArg-Phe-Phe-Gly-Lys-Pro-Val)] | – | > 100000 | – | > 100000 | – | – | – | – | – |
| Ac-SYS[Nle]EHRF[dF]GKPV-NH2 (SMILES CCCC[C@H](NC(=O)[C@H](CO)NC(=O)[C@H](Cc1ccc(O)cc1)NC(=O)[C@H](CO)NC(C)=O)C(=O)N[C@@H](CCC(=O)O)C(=O)N[C@@H](Cc1c[nH]cn1)C(=O)N[C@@H](CCCNC(=N)N)C(=O)N[C@@H](Cc1ccccc1)C(=O)N[C@H](Cc1ccccc1)C(=O)NCC(=O)N[C@@H](CCCCN)C(=O)N1CCC[C@H]1C(=O)N[C@H](C(N)=O)C(C)C) [SEQ ID NO:18 (Ac-Ser-Tyr-Ser-Nle-Glu-His-Arg-Phe-DPhe-Gly-Lys-Pro-Val)] | 3630 | > 100000 | – | > 100000 | – | – | – | – | – |
| YDHXKWNAFXY (Asp-Dpr side chain lactam bridge; Dpr; DPhe; C-terminal amide (amide resin)) [SEQ ID NO:37 (Tyr-c[Asp-His-DPhe-Lys-Trp-Asn-Ala-Phe-Dpr]-Tyr)] | 680 | 8600 | 800 | 30800 | – | – | – | – | – |
| YDHXRWNAFXY (Asp-Dpr side chain lactam bridge; Dpr; DNal(1′); C-terminal amide (amide resin)) [SEQ ID NO:34 (Tyr-c[Asp-His-DNal(1′)-Arg-Trp-Asn-Ala-Phe-Dpr]-Tyr)] | 9.2 | 0.57 | 3.13 | 320 | – | – | – | – | – |
| YD[dF]RWNAF[Dap]Y-NH2 (lactam 2-9) [SEQ ID NO:7 (Tyr-c[Asp-DPhe-Arg-Trp-Asn-Ala-Phe-Dpr]-Tyr-NH2)] | 4850 | 450 | 124 | – | – | – | – | – | – |
| YDXXRWNAFXY (Asp-Dpr side chain lactam bridge; Dpr; (rac)Atc; DPhe; C-terminal amide (amide resin)) [SEQ ID NO:30 (Tyr-c[Asp-(rac)Atc-DPhe-Arg-Trp-Asn-Ala-Phe-Dpr]-Tyr)] | 690 | 115 | 440 | – | – | 6.4 | – | – | – |
| YDHXRXNAFXY (Asp-Dpr side chain lactam bridge; Dpr; DPhe; Nal(2′); C-terminal amide (amide resin)) [SEQ ID NO:39 (Tyr-c[Asp-His-DPhe-Arg-Nal(2′)-Asn-Ala-Phe-Dpr]-Tyr)] | 0.53 | 0.27 | 1.93 | 5.56 | – | – | – | – | – |
| YDHXRWNAFXY (Asp-Dpr side chain lactam bridge; Dpr; (pI)DPhe; C-terminal amide (amide resin)) [SEQ ID NO:32 (Tyr-c[Asp-His-(pI)DPhe-Arg-Trp-Asn-Ala-Phe-Dpr]-Tyr)] | 0.3 | – | 2.33 | – | – | 8.9 | 9.4 | – | – |
| YDHXRWNAFXY (Asp-Dpr side chain lactam bridge; Dpr; DBip; C-terminal amide (amide resin)) [SEQ ID NO:35 (Tyr-c[Asp-His-DBip-Arg-Trp-Asn-Ala-Phe-Dpr]-Tyr)] | 3.87 | 0.57 | 5.27 | 33 | – | – | – | – | – |
| YDHXRXNAFXY (Asp-Dpr side chain lactam bridge; Dpr; DPhe; DNal(2′); C-terminal amide (amide resin)) [SEQ ID NO:40 (Tyr-c[Asp-His-DPhe-Arg-DNal(2′)-Asn-Ala-Phe-Dpr]-Tyr)] | 0.2 | 0.67 | 0.95 | 6.5 | – | – | – | – | – |
| YDHXPWNAFXY (Asp-Dpr side chain lactam bridge; Dpr; DPhe; C-terminal amide (amide resin)) [SEQ ID NO:36 (Tyr-c[Asp-His-DPhe-Pro-Trp-Asn-Ala-Phe-Dpr]-Tyr)] | 990 | 4300 | 3200 | 17300 | – | – | – | – | – |
| YDHARWNAF[Dap]Y-NH2 (lactam 2-10; N-terminus assumed; SMILES C[C@@H]1NC(=O)[C@H](CC(N)=O)NC(=O)[C@H](Cc2c[nH]c3ccccc23)NC(=O)[C@H](CCCNC(=N)N)NC(=O)[C@H](C)NC(=O)[C@H](Cc2c[nH]cn2)NC(=O)[C@@H](NC(=O)[C@@H](N)Cc2ccc(O)cc2)CC(=O)NC[C@@H](C(=O)N[C@@H](Cc2ccc(O)cc2)C(N)=O)NC(=O)[C@H](Cc2ccccc2)NC1=O) [SEQ ID NO:25 (Tyr-c[Asp-His-Ala-Arg-Trp-Asn-Ala-Phe-Dpr]-Tyr)] | 14000 | 14700 | 690 | – | – | – | – | – | 30300 |
